Experimental data as given in PMC4504706, “Deinococcus radiodurans PriA is a Pseudohelicase”.

T1: PriA (D. radiodurans) (Deinococcus radiodurans R1, UniProt P0DXX8 1-925)
T1 sequence: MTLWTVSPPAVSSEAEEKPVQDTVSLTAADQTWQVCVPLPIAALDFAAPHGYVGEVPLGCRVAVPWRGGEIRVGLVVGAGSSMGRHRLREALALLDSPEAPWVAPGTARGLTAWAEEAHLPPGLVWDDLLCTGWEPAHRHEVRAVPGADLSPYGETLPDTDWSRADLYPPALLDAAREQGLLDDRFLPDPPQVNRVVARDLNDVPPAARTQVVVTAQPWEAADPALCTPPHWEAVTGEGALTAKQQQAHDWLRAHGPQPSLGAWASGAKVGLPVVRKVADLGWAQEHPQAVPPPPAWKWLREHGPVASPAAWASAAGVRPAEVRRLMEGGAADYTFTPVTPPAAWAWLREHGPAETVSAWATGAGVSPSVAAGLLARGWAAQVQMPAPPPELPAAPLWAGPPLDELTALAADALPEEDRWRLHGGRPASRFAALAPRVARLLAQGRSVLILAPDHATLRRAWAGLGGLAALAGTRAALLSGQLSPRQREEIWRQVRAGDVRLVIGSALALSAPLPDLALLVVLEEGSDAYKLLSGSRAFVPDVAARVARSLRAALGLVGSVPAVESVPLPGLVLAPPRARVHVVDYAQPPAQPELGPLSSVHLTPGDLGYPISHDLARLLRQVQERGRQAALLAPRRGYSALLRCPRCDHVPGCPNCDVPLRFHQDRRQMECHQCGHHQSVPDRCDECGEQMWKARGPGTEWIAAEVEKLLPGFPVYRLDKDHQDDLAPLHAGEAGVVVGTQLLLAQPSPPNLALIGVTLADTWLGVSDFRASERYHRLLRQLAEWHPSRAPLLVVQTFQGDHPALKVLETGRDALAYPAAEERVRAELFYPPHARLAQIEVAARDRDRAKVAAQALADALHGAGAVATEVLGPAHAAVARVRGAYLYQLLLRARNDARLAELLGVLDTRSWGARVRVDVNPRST

B1: fully-duplex fork DNA, 25 bp arms (structured_DNA)
DNA 1: GTCGGATCCTCTAGACAGCTCCATGATCACTGGCACTGGTAGAATTCGGC
DNA 2: AACGTCATAGACGATTACATTGCTACATGGAGCTGTCTAGAGGATCCGAC
DNA 3: GCCGAATTCTACCAGTGCCAGTGAT
DNA 4: TAGCAATGTAATCGTCTATGACGTT

Key:
PriA (D. radiodurans) = molecular target: T1, PriA (D. radiodurans); assay: fluorescence anisotropy; 1 mM Mg2+, no ATP listed; apparent Kd (half-bound); 20 mM Tris-HCl pH 8, 15% glycerol, 50 mM NaCl, 1 mM MgCl2, 1 mM 2-mercaptoethanol, 0.1 g/L BSA, 1 nM DNA, 25 C; conditions: protein: recombinant, tags: N-terminal His6 removed by thrombin, leaving Gly-Ser-His before Met1
PriA (E. coli) = PriA (E. coli) (Escherichia coli K12, UniProt P17888 1-732); assay: as above; conditions: protein: recombinant
PriA (E. coli), sequence (P17888 whole entry): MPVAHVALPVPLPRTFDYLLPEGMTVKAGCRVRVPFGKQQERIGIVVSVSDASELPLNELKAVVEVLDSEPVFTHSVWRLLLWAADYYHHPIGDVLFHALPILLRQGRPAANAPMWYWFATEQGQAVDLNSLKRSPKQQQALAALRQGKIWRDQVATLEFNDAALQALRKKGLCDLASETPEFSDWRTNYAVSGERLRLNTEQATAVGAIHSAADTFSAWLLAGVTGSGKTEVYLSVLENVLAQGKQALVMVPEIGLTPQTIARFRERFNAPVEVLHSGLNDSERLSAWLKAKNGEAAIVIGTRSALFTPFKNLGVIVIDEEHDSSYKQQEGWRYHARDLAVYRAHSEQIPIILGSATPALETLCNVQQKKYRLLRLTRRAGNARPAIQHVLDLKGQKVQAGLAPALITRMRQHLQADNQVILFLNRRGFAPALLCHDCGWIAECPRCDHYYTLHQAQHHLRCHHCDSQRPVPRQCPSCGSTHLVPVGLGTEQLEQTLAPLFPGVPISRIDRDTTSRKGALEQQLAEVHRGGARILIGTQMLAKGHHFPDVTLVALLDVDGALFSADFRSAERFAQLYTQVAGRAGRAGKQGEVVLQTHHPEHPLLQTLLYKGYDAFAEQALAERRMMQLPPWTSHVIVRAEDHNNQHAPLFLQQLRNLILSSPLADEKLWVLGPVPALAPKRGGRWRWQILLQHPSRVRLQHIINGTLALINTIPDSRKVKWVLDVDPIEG

[1] = label: 3' fluorescein, single strand
[2] = label: 3' fluorescein on S8 (nascent lagging strand), three-way fork without gap: S5[1-25]:S6[26-50] parental, S5[26-50]:S7 leading, S6[1-25]:S8 lagging, blunt arms

Binder	Kd (PriA (D. radiodurans); [1]) [nM]	Kd (PriA (E. coli); [1]) [nM]	Kd (PriA (D. radiodurans); [2]) [nM]	Kd (PriA (E. coli); [2]) [nM]
AAGCACAATTACCCACGC (ssDNA) [18-base mixed-sequence ssDNA]	215 ± 17	129 ± 11.9	–	–
B1	–	–	108 ± 1.7	52.1 ± 1
